The values below come from patent publication US20240290419A1 (KATHOLIEKE UNIVERSITEIT LEUVEN, published 2024).

Data set [1] deals with the molecule itself. Description: dialysis to pH 4.0 and X-ray diffraction; self-assembly into crystals. The text has this:
SAKe's symmetry and modifiable interfaces make it an ideal building block for construction of macromolecular assemblies. […] To understand this reversible self-assembly mechanism, the crystals formed at different pH were investigated with XRD. […] At pH 8.0, His (pKa3 6.08-6.90) and Glu (pKa 4.3-4.4) are deprotonated and the net […] charge of S6BE likely causes mutual repulsion. However, at pH 4 these residues are protonated. Due to its symmetry and dipole-like character, S6BE shape and charge complementarity is then expected to allow for self-assembly into a tight hexagonal packing (FIGS. 2 and 11). A series of hydrogen bonds and hydrophobic interactions can then further stabilize the assembly. Similar mechanisms have been reported for the capsid proteins of cowpea chlorotic mosaic virus (CCMV) [Speir et al. Structure 1995, 3, 63-78; Lavelle et al. J. Phys. Chem. B 2009, 113, 3813-3819; Van Eldijk et al. J. Am. Chem. Soc. 2012, 134, 18506-18509].

Data set [2] deals with the molecule itself. Description: size exclusion chromatography. The text has this:
(§1) FIG. 29: Size Exclusion Chromatograms for various SAKe mutants. A: S6BE-3 HR on a HiLoad Superdex 75 pg 16/600 column. B: S6BE-3CHR on a HiLoad Superdex 200 pg 16/600 column. C: S2BE-3 HR on a HiLoad Superdex 75 pg 16/600 column. D: S6BE-3 HR-L3 on a HiLoad Superdex 200 pg 16/600 column. E: mEm-v22S6BE-3 HR on a HiLoad Superdex 200 pg 16/600 column. F: dS6AC on a HiLoad Superdex 200 pg 16/600 column.
(§2) Concentrated protein samples were loaded on HiLoad Superdex 75 pg 16/600 or HiLoad Superdex 200 pg 16/600 SEC columns (Cytiva). SEC can also be used to assess biological size. All samples were run with a HEPES buffer (20 mM HEPES, pH 8.0, 200 mM NaCl). Proteins expected to interact with metals were incubated with at least 5 mM EDTA prior to SEC injection.

Data set [3] concerns the molecule itself. Description: size exclusion chromatography, after EDTA.
Description: as §1, §2

Data set [4] deals with the molecule itself. Description: SDS PAGE, SEC, XRD; self-association.

B1: S6BE (other)
chain: MNGLIYAVGGYDGNTHLNSVEAYDPERNEWSLVAPLSTRRSGVGVAVLNGLIYAVGGYDGNTHLNSVEAYDPERNEWSLVAPLSTRRSGVGVAVLNGLIYAVGGYDGNTHLNSVEAYDPERNEWSLVAPLSTRRSGVGVAVLNGLIYAVGGYDGNTHLNSVEAYDPERNEWSLVAPLSTRRSGVGVAVLNGLIYAVGGYDGNTHLNSVEAYDPERNEWSLVAPLSTRRSGVGVAVLNGLIYAVGGYDGNTHLNSVEAYDPERNEWSLVAPLSTRRSGVGVAVL
notes: Designed six-blade B-type SAKe propeller; Expressed with an N-terminal His tag that was removed with thrombin; also called SAKe6BE; S6_6E
For B1, the binding result in data set [1] is “binds”.

B2: dS6AC (other)
chain: NGRIYAVGGYDGSPDGHTHLNSVEAYDPETDEWSFVAPMTTPRSGVGVAVLNGRIYAVGGYDGSPDGHTHLNSVEAYDPETDEWSFVAPMTTPRSGVGVAVLNGRIYAVGGYDGSPDGHTHLNSVEAYDPETDEWSFVAPMTTPRSGVGVAVLNGRIYAVGGYDGSPDGHTHLNSVEAYDPETDEWSFVAPMTTPRSGVGVAVLNGRIYAVGGYDGSPDGHTHLNSVEAYDPETDEWSFVAPMTTPRSGVGVAVLNGRIYAVGGYDGSPDGHTHLNSVEAYDPETDEWSFVAPMTTPRSGVGVAVLSGGRIYAVGGYDGSPDGHTHLNSVEAYDPETDEWSFVAPMTTPRSGVGVAVLNGRIYAVGGYDGSPDGHTHLNSVEAYDPETDEWSFVAPMTTPRSGVGVAVLNGRIYAVGGYDGSPDGHTHLNSVEAYDPETDEWSFVAPMTTPRSGVGVAVLNGRIYAVGGYDGSPDGHTHLNSVEAYDPETDEWSFVAPMTTPRSGVGVAVLNGRIYAVGGYDGSPDGHTHLNSVEAYDPETDEWSFVAPMTTPRSGVGVAVLNGRIYAVGGYDGSPDGHTHLNSVEAYDPETDEWSFVAPMTTPRSGVGVAVL
notes: Genetic fusion of two S6AC units via a Ser linker
For B2, in data set [2], the binding result is “no binding”.

B3: S6BE-3HR-L3 (other)
chain: NGLIYAVGGYDGSPDGSTHLNSVEAYDPERNEWSLVAPLSTRRSGVGVAVLNGLIYAVGGFATLETESGELVPTELNSVEAYDPHRNEWSLVAPLSTRRSGVGVAVLNGLIYAVGGYDGSPDGSTHLNSVEAYDPERNEWSLVAPLSTRRSGVGVAVLNGLIYAVGGFATLETESGELVPTELNSVEAYDPHRNEWSLVAPLSTRRSGVGVAVLNGLIYAVGGYDGSPDGSTHLNSVEAYDPERNEWSLVAPLSTRRSGVGVAVLNGLIYAVGGFATLETESGELVPTELNSVEAYDPHRNEWSLVAPLSTRRSGVGVAVL
notes: L3 loop graft on the S6BE-3HR scaffold
In the case of B3, the binding result in data set [3] was “no binding”.

B4: S2BE-3HR (other)
chain: NGLIYAVGGYDGNTHLNSVEAYDPERNEWSLVAPLSTRRSGVGVAVLNGLIYAVGGYDGNTHLNSVEAYDPHRNEWSLVAPLSTRRSGVGVAVL
notes: Designed two-blade truncation of S6BE-3HR; Expressed from pET-28a with an N-terminal hexahistidine tag that was removed with thrombin
With B4, in data set [4], the binding result is “binds”.
